Publication PMC6804253, “Predicting and Experimentally Validating Hot-Spot Residues at Protein–Protein Interfaces” (ACS Chemical Biology, 2019)
Where a chain is given by its changes, count along the chain named.

B1: 1A4Y EA287A (protein, UniProt P13489 2-461, looked up, variant E287A)
Ribonuclease inhibitor: SLDIQSLDIQCEELSDARWAELLPLLQQCQVVRLDDCGLTEARCKDISSALRVNPALAELNLRSNELGDVGVHCVLQGLQTPSCKIQKLSLQNCCLTGAGCGVLSSTLRTLPTLQELHLSDNLLGDAGLQLLCEGLLDPQCRLEKLQLEYCSLSAASCEPLASVLRAKPDFKELTVSNNDINEAGVRVLCQGLKDSPCQLEALKLESCGVTSDNCRDLCGIVASKASLRELALGSNKLGDVGMAELCPGLLHPSSRLRTLWIWECGITAKGCGDLCRVLRAKESLKALSLAGNELGDEGARLLCETLLEPGCQLESLWVKSCSFTAACCSHFSSVLAQNRFLLELQISNNRLEDAGVRELCQGLGQPGSVLRVLWLADCDVSDSSCSSLAATLLANHSLRELDLSNNCLGDAGILQLVESVRQPGCLLEQLVLYDIYWSEEMEDRLQALEKDKPSLRVIS
B2: 1A4Y KA320A (protein, UniProt P13489 2-461, looked up, variant K320A)
Ribonuclease inhibitor: B1 Ribonuclease inhibitor with A287E, K320A
B3: 1A4Y EA344A (protein, UniProt P13489 2-461, looked up, variant E344A)
Ribonuclease inhibitor: B1 Ribonuclease inhibitor with A287E, E344A
B4: 1EMV YA55A (protein, UniProt P13479 1-86, looked up, variant Y55A)
Colicin-E9 immunity protein: MELKHSISDYTEAEFLQLVTTICNADTSSEEELVKLVTHFEEMTEHPSGSDLIYAPKEGDDDSPSGIVNTVKQWRAANGKSGFKQG
B5: 1EMV VA68A (protein, UniProt P13479 1-86, looked up, variant V68A)
Colicin-E9 immunity protein: B4 Colicin-E9 immunity protein with A55Y, V68A
B6: 1IAR IA5A (protein, UniProt P05112 25-153, looked up, variant I5A)
Interleukin-4: HKCDATLQEIIKTLNSLTEQKTLCTELTVTDIFAASKNTTEKETFCRAATVLRQFYSHHEKDTRCLGATAQQFHRHKQLIRFLKRLDRNLWGLAGLNSCPVKEANQSTLENFLERLKTIMREKYSKCSS
B7: 1IAR IA11A (protein, UniProt P05112 25-153, looked up, variant I11A)
Interleukin-4: B6 Interleukin-4 with A5I, I11A
B8: 1IAR FA82A (protein, UniProt P05112 25-153, looked up, variant F82A)
Interleukin-4: B6 Interleukin-4 with A5I, F82A
B9: 1IAR WA91A (protein, UniProt P05112 25-153, looked up, variant W91A)
Interleukin-4: B6 Interleukin-4 with A5I, W91A
B10: 1JRH YI49A (protein, UniProt P15260 18-245, looked up, variant Y49A)
extracellular domain: EMGTADLGPSSVPTPTNVTIESYNMNPIVYWEYQIMPQVPVFTVEVKNAGVKNSEWIDACINISHHYCNISDHVGDPSNSLWVRVKARVGQKESAYAKSEEFAVCRDGKIGPPKLDIRKEEKQIMIDIFHPSVFVNGDEQEVDYDPETTCYIRVYNVYVRMNGSEIQYKILTQKEDDCDEIQCQLAIPVSSLNSQYCVSAEGVLHVWGVTTEKSKEVCITIFNSSIKG
modifications: extracellular domain
B11: 1JRH VI51A (protein, UniProt P15260 18-245, looked up, variant V51A)
extracellular domain: B10 extracellular domain with A49Y, V51A
modifications: extracellular domain
B12: 1JRH WI82A (protein, UniProt P15260 18-245, looked up, variant W82A)
extracellular domain: B10 extracellular domain with A49Y, W82A
modifications: extracellular domain
B13: 1DAN GT43A (protein, UniProt P13726 33-251, looked up, variant G43A)
extracellular domain: SGTTNTVAAYNLTWKSTNFKTILEWEPKPVNQVYTVQISTKSADWKSKCFYTTDTECDLTDEIVKDVKQTYLARVFSYPAGNVESTGSAGEPLYENSPEFTPYLETNLGQPTIQSFEQVGTKVNVTVEDERTLVRRNNTFLSLRDVFGKDLIYTLYYWKSSSSGKKTAKTNTNEFLIDVDKGENYCFSVQAVIPSRTVNRKSTDSPVECMGQEKGEFRE
modifications: extracellular domain
B14: 1DAN PU92A (protein, UniProt P13726 33-251, looked up, variant P92A)
extracellular domain: B13 extracellular domain with A43G, P92A
modifications: extracellular domain
B15: 1EMV GA49A (protein, UniProt P13479 1-86, looked up, variant G49A)
Colicin-E9 immunity protein: B4 Colicin-E9 immunity protein with G49A, A55Y
B16: 1EMV PA56A (protein, UniProt P13479 1-86, looked up, variant P56A)
Colicin-E9 immunity protein: B4 Colicin-E9 immunity protein with A55Y, P56A
B17: 1JRH GI50A (protein, UniProt P15260 18-245, looked up, variant G50A)
extracellular domain: B10 extracellular domain with A49Y, G50A
modifications: extracellular domain
B18: 1A4Y SA289A (protein, UniProt P13489 2-461, looked up, variant S289A)
Ribonuclease inhibitor: B1 Ribonuclease inhibitor with A287E, S289A
B19: 1AHW TC167A (protein, UniProt P13726 33-251, looked up, variant T167A)
extracellular domain: B13 extracellular domain with A43G, T167A
modifications: extracellular domain
B20: 1AHW TC197A (protein, UniProt P13726 33-295, looked up, variant T197A)
Tissue factor: SGTTNTVAAYNLTWKSTNFKTILEWEPKPVNQVYTVQISTKSGDWKSKCFYTTDTECDLTDEIVKDVKQTYLARVFSYPAGNVESTGSAGEPLYENSPEFTPYLETNLGQPTIQSFEQVGTKVNVTVEDERTLVRRNNTFLSLRDVFGKDLIYTLYYWKSSSSGKKTAKTNTNEFLIDVDKGENYCFSVQAVIPSRAVNRKSTDSPVECMGQEKGEFREIFYIIGAVVFVVIILVIILAISLHKCRKAGVGQSWKENSPLNVS
B21: 1AHW NC199A (protein, UniProt P13726 33-251, looked up, variant N199A)
extracellular domain: B13 extracellular domain with A43G, N199A
modifications: extracellular domain

test system: PPIs of the SKEMPI data set (by PDBID); test: not given; details: single mutation to alanine; PPI given by PDBID; sheet sortedByGroup, r_group DERKH; ref SKEMPI; cited from earlier work

Molecule | sk_ddG_kJ (SKEMPI experimental ΔΔG, mutation to alanine) [kJ]
B1 | 0.38
B2 | -1.30
B3 | 0.67

same assay, conditions: single mutation to alanine; PPI given by PDBID; sheet sortedByGroup, r_group FAMILYVW; ref SKEMPI; cited from earlier work

Molecule | sk_ddG_kJ (SKEMPI experimental ΔΔG) [kJ]
B4 | 19.41
B5 | 7.78
B6 | 4.90
B7 | 0.29
B8 | -0.38
B9 | 3.05
B10 | 15.31
B11 | 6.19
B12 | 18.12

same assay, conditions: single mutation to alanine; complex given by PDBID, mutation by mut_pdb; ref SKEMPI; cited from earlier work

Molecule | sk_ddG_kJ (SKEMPI experimental ΔΔG) [kJ]
B13 | 0.29
B14 | -0.79
B15 | 6.23
B16 | 5.19
B17 | 18.33
B18 | 0.13

same assay, conditions: single mutation to alanine; complex given by PDBID; residue group SQNT; ref SKEMPI; cited from earlier work

Molecule | sk_ddG_kJ (SKEMPI experimental ΔΔG) [kJ]
B19 | -0.29
B20 | 5.65
B21 | 4.52

test system: PPIs of the SKEMPI data set (by PDBID); test: SKEMPI experimental ΔΔG, single mutations to alanine; assay type: binding; details: class by ΔΔG threshold 4.184 kJ/mol; ref SKEMPI

Molecule | sk_class (class of SKEMPI experimental ΔΔG) | sk_class (class of the SKEMPI experimental ΔΔG)
B4 | Positive (positive (a hot residue) ΔΔG ≥ 4.184 kJ/mol) | 
B5 | Positive (positive (a hot residue) ΔΔG ≥ 4.184 kJ/mol) | 
B6 | Positive (positive (a hot residue) ΔΔG ≥ 4.184 kJ/mol) | 
B7 | Neutral (neutral (little effect) 4.184 kJ/mol < ΔΔG > −4.184 kJ/mol) | 
B8 | Neutral (neutral (little effect) 4.184 kJ/mol < ΔΔG > −4.184 kJ/mol) | 
B9 | Neutral (neutral (little effect) 4.184 kJ/mol < ΔΔG > −4.184 kJ/mol) | 
B10 | Positive (positive (a hot residue) ΔΔG ≥ 4.184 kJ/mol) | 
B11 | Positive (positive (a hot residue) ΔΔG ≥ 4.184 kJ/mol) | 
B12 | Positive (positive (a hot residue) ΔΔG ≥ 4.184 kJ/mol) | 
B1 |  | Neutral (neutral (little effect) 4.184 kJ/mol < ΔΔG > −4.184 kJ/mol)
B2 |  | Neutral (neutral (little effect) 4.184 kJ/mol < ΔΔG > −4.184 kJ/mol)
B3 |  | Neutral (neutral (little effect) 4.184 kJ/mol < ΔΔG > −4.184 kJ/mol)

same assay, conditions: class of the SKEMPI experimental ΔΔG

Molecule | sk_class
B13 | Neutral (neutral (little effect) 4.184 kJ/mol < ΔΔG > −4.184 kJ/mol)
B14 | Neutral (neutral (little effect) 4.184 kJ/mol < ΔΔG > −4.184 kJ/mol)
B15 | Positive (positive (a hot residue) ΔΔG ≥ 4.184 kJ/mol)
B16 | Positive (positive (a hot residue) ΔΔG ≥ 4.184 kJ/mol)
B17 | Positive (positive (a hot residue) ΔΔG ≥ 4.184 kJ/mol)
B18 | Neutral (neutral (little effect) 4.184 kJ/mol < ΔΔG > −4.184 kJ/mol)
B19 | Neutral (neutral (little effect) 4.184 kJ/mol < ΔΔG > −4.184 kJ/mol)
B20 | Positive (positive (a hot residue) ΔΔG ≥ 4.184 kJ/mol)
B21 | Positive (positive (a hot residue) ΔΔG ≥ 4.184 kJ/mol)
